According to US20130210151:

Columns and labels:
TevN201-ZFE (synthetic) = assay: cell_activity
I-BmoI = assay: cleavage_in_vitro; details: one-site plasmid; two-site 0.096
Sequence of I-BmoI (chain, as listed by the source): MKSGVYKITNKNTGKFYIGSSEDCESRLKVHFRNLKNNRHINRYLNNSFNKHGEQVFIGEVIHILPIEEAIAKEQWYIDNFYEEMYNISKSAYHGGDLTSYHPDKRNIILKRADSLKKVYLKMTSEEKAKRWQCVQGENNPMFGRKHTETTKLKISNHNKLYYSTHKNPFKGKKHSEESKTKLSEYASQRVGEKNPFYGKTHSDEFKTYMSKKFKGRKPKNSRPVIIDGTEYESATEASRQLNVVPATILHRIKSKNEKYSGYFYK

Sequence of TevN201-ZFE (synthetic) (chain, as listed by the source): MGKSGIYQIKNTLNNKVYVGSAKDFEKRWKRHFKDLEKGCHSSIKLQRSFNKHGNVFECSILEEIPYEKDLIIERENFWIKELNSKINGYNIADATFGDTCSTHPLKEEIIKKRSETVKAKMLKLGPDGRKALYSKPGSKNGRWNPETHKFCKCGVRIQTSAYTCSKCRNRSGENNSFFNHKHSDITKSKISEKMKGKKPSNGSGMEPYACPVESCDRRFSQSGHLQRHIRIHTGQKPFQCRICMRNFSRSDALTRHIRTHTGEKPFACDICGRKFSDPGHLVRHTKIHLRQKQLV

Substance | activity (TevN201-ZFE (synthetic)) [% survival] | activity (I-BmoI)
p11-lacY-wtx1 plasmid without target site | 0 | 
pBmoIHS thyA homing site plasmid |  | 0.105 s-1 (kobs)
